The values that follow come from patent US20250009876A1 (H LUNDBECK A S, published 2025).

Like-named read-outs stand apart in the source and are kept apart here. Where only a bound is given, the exact number is not on record here.

By EC50 is commonly meant the concentration needed to bring the measured effect to its halfway point. As usually defined, the Kd is the constant that tells how readily two partners part at equilibrium. Read a low Kd as tighter binding. As a reminder, the koff is the rate constant with which the complex falls apart. By kon is commonly meant a measure of how fast the partners come together. Higher therefore signals fast association. For orientation: IC50 means the concentration at which inhibition is half-maximal. A higher IC50 goes with weaker potency. For orientation: EC50 (read off the curve) means the concentration needed to bring the measured effect to its halfway point. Higher therefore signals weaker potency.

The target in experiment [1] is T1, PACAP38 (Pituitary Adenylate Cyclase-Activating Polypeptide, 38 amino acids) (human, not fully specified; the C-terminal lysine is amidated).
T1 peptide: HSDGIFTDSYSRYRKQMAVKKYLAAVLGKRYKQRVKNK
Put plainly: cell-based or functional assay.

For experiment [2], the target named is T1, PACAP38 (Pituitary Adenylate …). Put plainly: HTRF binding assay, antibody dilution series on 35 nM biotinylated PACAP38. The protocol:
In parallel, 10 μl of an antibody dilution series (highest final concentration of 100 nM) were incubated with 10 μl of N-terminal or C-terminal biotinylated PACAP38 (35 nM final) alone, or in combination with either PACAP27 (350 nM final) or VIP (350 nM final), i.e., 10× PACAP27 or 10× VIP, respectively, in a HTRF plate. 20 μl of Eu³⁺ cryptate labeled anti-hu Fc donor and 20 μl of d2-labeled streptavidin acceptor were added to each well and incubated for 1 hour at room temperature. Fluorescence was measured at 620 and 665 nm with a delay of 300 usec.
EC₅₀ values, i.e. the concentration of an antibody that yields a response halfway between the baseline and the maximum value within a specified time period, were computed for each antibody based upon their binding curves and are shown in Table 1 below. […] A humanized form of antibody Ab1 identified by an appended “.H”, i.e., Ab1.H also bound PACAP38 with high affinity.
On the technique in general: Time-resolved FRET reads energy transfer from a long-lived donor to a nearby acceptor.

The target in experiment [3] is T2, PACAP27 (Pituitary Adenylate Cyclase-Activating Polypeptide, 27 amino acids) (human, the C-terminal leucine is amidated).
T2 peptide: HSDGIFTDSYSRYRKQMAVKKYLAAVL
In words: cell-based or functional assay.

In experiment [4] the target is T1, PACAP38 (Pituitary Adenylate …). In words: cell-based or functional assay.
The target in experiment [5] is T3, VIP (Vasoactive Intestinal Peptide) (human).
T3 construct: also called human VIP
T3 peptide: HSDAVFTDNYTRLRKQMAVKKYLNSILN
In words: SPR (ProteOn XPR36), antibody amine-coupled, peptide analyte, 1:1 Langmuir fit; SPR, direct binding of VIP to the antibody; weak, KD 3.1E-07 M.

Experiment [6] has as its target T2, PACAP27 (Pituitary Adenylate …). In words: SPR (ProteOn XPR36), antibody amine-coupled, peptide analyte, 1:1 Langmuir fit. The protocol:
(§1) Binding affinities of monoclonal antibodies for human PACAP were estimated using SPR on the PROTEON™ XPR36 (Bio-Rad, Hercules, CA). Antibody was immobilized to the surface of general amine coupling (“GLC” or “GLM”) Chips (Bio-Rad, Hercules, CA). […] Antigen (ranging from 1.23 nM to 100 nM) was typically run sequentially with association times of 2-4 minutes and dissociation times of 3-120 minutes grouped with the PROTEON™ Manager Software (v3.1.0.6 (Bio-Rad, Hercules, CA)) and fitted using a 1:1 Langmuir binding model. Surfaces were regenerated between analyte queries using 0.85% Phosphoric Acid.

Experiment [7] deals with T1, PACAP38 (Pituitary Adenylate …). Described as above. As for the experimental part: as §1
Experiment [8] shares this target. In words: cell-based or functional assay.
For experiment [9] the target is unchanged. Put plainly: inhibition of 30 nM biotinylated PACAP38 binding to PAC1-R-expressing PC-12 cells, Eu-streptavidin TRF. The protocol:
To identify antibodies that block PACAP38 binding to PAC1-R-expressing cells, adherent PC-12 cells (ATCC, Manassas, VA) expressing PAC1-R were used in a Europium-based PAC1-R-expressing cells binding assay. Antibody solutions were incubated with N-terminal biotinylated PACAP38 at 10× the final concentration (100 nM or 30 nM) for 1 hr, then added to PC-12 cells that were plated 24 hrs prior in black clear bottom 96 well plates (COSTAR™, Corning Incorporated, Corning, NY) and further incubated for 1 hr at room temperature. After three washes, the cells were incubated with 20 μl Europium-labeled streptavidin (PerkinElmer, Waltham, MA) for 1 hr at room temperature. Cells were washed three times, then 20 μl DELFIA® Enhancement solution (PerkinElmer, Waltham, MA) was added to each well and incubated for 15 minutes with gentle shaking. Plates were read (Time Resolved Fluorescence (“TRF”)) on SPECTRAMAX® (Molecular Devices, Sunnyvale, CA) plate reader.
FIGS. 14A-14H are representative of the inhibition curves obtained by this method (results are shown for Ab10, Ab20, Ab21, Ab1.H, Ab10.H, Ab21.H, Ab22, and Ab23, respectively) wherein the PAC1-R expressing cells were PC-12 cells.

Experiment [10] shares this target. In words: cell surface binding assay (DELFIA TRF): antibody pre-incubated with PACAP38, added to PAC1-R-expressing PC-12 cells, detected with Eu anti-human IgG; the antibody is held on the cells through cell-bound PACAP38.
The target in experiment [11] is T2, PACAP27 (Pituitary Adenylate …). Put plainly: SPR (ProteOn XPR36), antibody amine-coupled, peptide analyte, 1:1 Langmuir fit. As for the experimental part:
(§2) Binding affinities of monoclonal antibodies for human PACAP were estimated using SPR on the PROTEON™ XPR36 (Bio-Rad, Hercules, CA). Antibody was immobilized to the surface of general amine coupling (“GLC″ or “GLM”) Chips (Bio-Rad, Hercules, CA). […] Antigen (ranging from 1.23 nM to 100 nM) was typically run sequentially with association times of 2-4 minutes and dissociation times of 3-120 minutes grouped with the PROTEON™ Manager Software (v3.1.0.6 (Bio-Rad, Hercules, CA)) and fitted using a 1:1 Langmuir binding model. Surfaces were regenerated between analyte queries using 0.85% Phosphoric Acid, 0.5% SDS, and 0.1N NaOH.

Experiment [12] has as its target T1, PACAP38 (Pituitary Adenylate …). The experiment is described as above. As for the experimental part: as §2
For experiment [13], the target named is T2, PACAP27 (Pituitary Adenylate …). In words: cell-based or functional assay.
Experiment [14] has as its target T1, PACAP38 (Pituitary Adenylate …). In words: cell-based or functional assay.
Experiment [15] has the same target. In words: cell surface binding assay (DELFIA TRF): antibody pre-incubated with PACAP38, added to PAC1-R-expressing PC-12 cells, detected with Eu anti-human IgG; the antibody is held on the cells through cell-bound PACAP38. As for the experimental part: Cells were initially seeded at 1×10⁵ cells/well in a solution of complete RPMI (“cRPMI”: RPMI medium supplemented with 10% sterile heat-inactivated FBS and 1% sterile antibiotic/antimycotic)+10% FBS, and the plates were allowed to incubate overnight at 37° C. On the day of the binding assay, antibodies at an initial concentration of 15 μg/ml were diluted at a 1:3 ratio in DELFIA® binding buffer (50 mM Tris, 150 mM NaCl, 0.1% azide, 2% horse serum) (Perkin-Elmer, Waltham, MA) to a total volume of 60 μL in a separate 96 well round bottom plate. PACAP38 was prepared for the binding assay by diluting it in DELFIA® binding buffer to a concentration of 200 nM, and then 60 μl of the diluted PACAP38 was added to each of the antibody-containing wells to form antibody: antigen complexes. Following addition of PACAP38, the antibody: antigen complexes were incubated at room temperature on a shaker for 1 hour. […]
DELFIA® Europium labeled anti-human IgG detection reagent (Cat #1244-330, Perkin-Elmer, Waltham, MA) was diluted to a concentration of 300 ng/ml in DELFIA® Binding Buffer. […] The plates were then read (TRF, excitation 330 nm, emission 620 nm) on a SPECTRAMAX® (Molecular Devices, Sunnyvale, CA) plate reader.

Experiment [16] deals with T3, VIP (Vasoactive Intestinal Peptide). Put plainly: SPR (ProteOn XPR36), antibody amine-coupled, peptide analyte, 1:1 Langmuir fit.

B1: Ab21 (antibody, human IgG1, kappa, N297A, V domains shown)
VH: QSVEESGGRLVTPGTPLTLTCTVSGIDLSSYYMTWVRQAPGKGLEWVGFIDAGGSAYYATWAKGRFTISKASTTVDLKITSPTTEDTATYFCARDLDLWGPGTLVTVSS
VL: AAVLTQTPSPVSAAVGGTVSISCKSSESVYGDYLAWFQQKPGQPPKQLIYDASTLASGVPSRFKGSGSGTQFTLTISGVQCDDAATYYCAGGYVSAGVAFGGGTEVVVKR
notes: Full-length anti-PACAP antibody; rabbit/human chimeric
In the case of B1, in experiment [1], the “Inhibition of 5 nM PACAP38-induced human VPAC1-R mediated cAMP increase IC50 (pM)” value worked out at 2850 pM. Besides, in experiment [2], the EC50 turned out to be 0.84 nM. Besides, in experiment [3], the “Inhibition of 0.1 nM PACAP27-induced PAC1-R mediated cAMP increase IC50 (pM)” value stood at 140 pM. Besides, in experiment [4], the “Inhibition of 0.1 nM PACAP38-induced PAC1-R mediated cAMP increase IC50 (pM)” value came to 239 pM. Besides, in [5], the Kd amounted to 310 nM, the dissociation rate constant (koff) is 0.00054 s⁻¹ and the kon turned out to be 1700 M⁻¹ s⁻¹. In experiment [6], this molecule gave a Kd not above 0.013 nM, a koff not above 1e-05 s⁻¹ and a kon of 790000 M⁻¹ s⁻¹. In [7], this molecule showed a Kd not above 0.027 nM, a koff not above 1e-05 s⁻¹ and a kon of 370000 M⁻¹ s⁻¹. Further, the “Inhibition of 1 nM PACAP38-induced human VPAC2-R mediated cAMP increase IC50 (pM)” value in experiment [8] worked out at 5220 pM. Further, in experiment [9], the IC50 was 20.3 nM.

B2: Ab1.H (antibody, V domains shown)
VH: EVQLVESGGGLVQPGGSLRLSCAASGFTVSSAVMNWVRQAPGKGLEWIGSIVASGTTYYASSANGRFTISRDNSKNTLYLQMNSLRAEDTAVYYCARGGGEFFIWGQGTLVTVSS
VL: DIQMTQSPSTLSASVGDRVTITCQSSESVYSNYLSWYQQKPGKAPKFLIYQASNLASGVPSRFSGSGSGTEFTLTISSLQPDDFATYYCAGGYSENIVGFGGGTKVEIKR
Take B2: the concentration giving a half-maximal response (EC50 (read off the curve)) in experiment [10] is approximately 2 nM. In experiment [6], this molecule yielded a Kd of 0.013 nM and a koff of 1e-05 s⁻¹. In experiment [7], the affinity, expressed as Kd, was 0.021 nM and the koff is 1e-05 s⁻¹.

B3: Ab21.H2 (antibody, human IgG1, kappa, N297A)
heavy: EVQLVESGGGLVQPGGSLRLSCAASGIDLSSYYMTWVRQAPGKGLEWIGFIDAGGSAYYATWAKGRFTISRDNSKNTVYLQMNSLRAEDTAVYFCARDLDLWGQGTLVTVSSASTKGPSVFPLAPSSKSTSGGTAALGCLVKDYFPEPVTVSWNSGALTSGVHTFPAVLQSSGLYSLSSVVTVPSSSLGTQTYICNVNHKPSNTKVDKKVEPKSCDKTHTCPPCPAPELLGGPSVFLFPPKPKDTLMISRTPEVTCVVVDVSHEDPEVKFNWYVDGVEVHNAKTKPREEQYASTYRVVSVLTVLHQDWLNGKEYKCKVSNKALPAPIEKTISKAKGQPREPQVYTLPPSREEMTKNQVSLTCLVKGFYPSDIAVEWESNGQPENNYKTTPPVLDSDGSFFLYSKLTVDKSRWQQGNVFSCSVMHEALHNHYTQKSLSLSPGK
light: AVLTQSPSTLSASVGDRVTITCKSSESVYGDYLAWFQQKPGKAPKQLIYDASTLASGVPSRFSGSGSGTEFTLTISSLQPDDFATYYCAGGYVSAGVAFGGGTKVEIKRTVAAPSVFIFPPSDEQLKSGTASVVCLLNNFYPREAKVQWKVDNALQSGNSQESVTEQDSKDSTYSLSSTLTLSKADYEKHKVYACEVTHQGLSSPVTKSFNRGEC
notes: Full-length humanized variant of Ab21
Take B3: the “Inhibition of 5 nM PACAP38-induced human VPAC1-R mediated cAMP increase IC50 (pM)” value in [1] amounted to 2480 pM. In experiment [11], the Kd is not above 0.0233 nM, the koff is not above 1e-05 s⁻¹ and the kon came out at 430000 M⁻¹ s⁻¹. In [12], the Kd is not above 0.0171 nM, the koff was not above 1e-05 s⁻¹ and the kon stood at 586000 M⁻¹ s⁻¹. Moreover, in [13], the “Inhibition of 1 nM PACAP27-induced PAC1-R mediated cAMP increase IC50 (pM)” value worked out at 274 pM. In addition, the “Inhibition of 0.1 nM PACAP38-induced PAC1-R mediated cAMP increase IC50 (pM)” value in experiment [14] turned out to be 28.5 pM. In [15], the “EC50 (read off the curve)” value is approximately 7 nM. The “Inhibition of 1 nM PACAP38-induced human VPAC2-R mediated cAMP increase IC50 (pM)” value in experiment [8] is 1060 pM. In [16], binding was characterised by a dissociation constant (Kd) of 225 nM, the koff was determined as 0.011 s⁻¹ and the kon amounted to 48800 M⁻¹ s⁻¹.
